Reference: paper PMC3783171, “Sulfolobus chromatin proteins modulate strand displacement by DNA polymerase B1”

Columns and labels:
Cren7 [1] = target: T1, Cren7 (Sulfolobus solfataricus, UniProt Q97ZE3 1-60); test: EMSA; 4 mM Mg2+, 25 C; EMSA: 50 mM Tris-HCl pH 8.0, 2 mM beta-mercaptoethanol, 0.1 mg/ml BSA, 4 mM MgCl2, 5% glycerol, 2 nM probe, 10 min at 25 C (room temperature), 5% PAGE in 0.1x TBE; Tm: 10 mM potassium phosphate pH 7.0, 20-90 C; details: protein: recombinant; label: 32P on D30; blunt
T1 sequence: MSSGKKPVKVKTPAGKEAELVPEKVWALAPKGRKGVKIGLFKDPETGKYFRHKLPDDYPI

Sso7d = target: T2, Sso7d (Sulfolobus solfataricus, UniProt P39476 1-64); test: EMSA; apparent Kd; 4 mM Mg2+, 25 C; EMSA: 50 mM Tris-HCl pH 8.0, 2 mM beta-mercaptoethanol, 0.1 mg/ml BSA, 4 mM MgCl2, 5% glycerol, 2 nM probe, 10 min at 25 C (room temperature), 5% PAGE in 0.1x TBE; Tm: 10 mM potassium phosphate pH 7.0, 20-90 C; details: protein: recombinant, blunt
T2 sequence: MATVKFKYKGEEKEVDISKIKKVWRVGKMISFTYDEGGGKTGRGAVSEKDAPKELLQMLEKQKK

Cren7 [2] = target: T1, Cren7; test: thermal denaturation (A260); EMSA: 50 mM Tris-HCl pH 8.0, 2 mM beta-mercaptoethanol, 0.1 mg/ml BSA, 4 mM MgCl2, 5% glycerol, 2 nM probe, 10 min at 25 C (room temperature), 5% PAGE in 0.1x TBE; Tm: 10 mM potassium phosphate pH 7.0, 20-90 C; details: protein: recombinant; blunt

B1: 30-bp dsDNA (D30/Com30) (dsDNA)
DNA 1: TGCTTCCTTCAATGTGCTGGGATCCTACAA
DNA 2: TTGTAGGATCCCAGCACATTGAAGGAAGCA
binding result (Cren7 [1]): binds
Kd (Sso7d; label: 32P on D30): 150 nM

B2: 30-bp RNA:DNA hybrid (R30/Com30) (DNA:RNA)
RNA: UGCUUCCUUCAAUGUGCUGGGAUCCUACAA
DNA: B1 DNA 2
modifications: R30 strand is RNA
Kd (Sso7d; label: 32P on R30): 500 nM

B3: 15-bp dsDNA (D15/Com15) (dsDNA)
DNA 1: TGCATCCTTCAAGAC
DNA 2: GTCTTGAAGGATGCA
binding result (Cren7 [2]): binds
